Data: PMC4041450

Tests used:
GST-His-SHARP R3-4h = target: T1, GST-His-SHARP R3-4h (Homo sapiens, UniProt Q96T58 436-620); test: UV crosslinking
T1 sequence: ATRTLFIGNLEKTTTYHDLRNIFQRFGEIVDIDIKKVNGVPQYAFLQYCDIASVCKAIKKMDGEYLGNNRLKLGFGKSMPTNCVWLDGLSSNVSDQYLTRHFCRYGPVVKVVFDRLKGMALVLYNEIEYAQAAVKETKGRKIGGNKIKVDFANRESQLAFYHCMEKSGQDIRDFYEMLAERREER

[1] = target: T2, SHARP R2-3-4h (SHARP-RRM) (Homo sapiens, UniProt Q96T58 335-620); test: competition
T2 sequence: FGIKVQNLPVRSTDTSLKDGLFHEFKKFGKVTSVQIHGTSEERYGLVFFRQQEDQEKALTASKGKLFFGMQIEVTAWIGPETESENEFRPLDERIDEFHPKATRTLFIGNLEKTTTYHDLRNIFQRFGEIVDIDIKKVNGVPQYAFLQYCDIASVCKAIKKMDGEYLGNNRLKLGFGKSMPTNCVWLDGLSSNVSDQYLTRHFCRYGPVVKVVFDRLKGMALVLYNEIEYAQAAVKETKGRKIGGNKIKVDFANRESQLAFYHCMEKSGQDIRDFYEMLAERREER

B1: SRA RNA H12-H13 extended (structured_RNA)
RNA: GGGAGCAGGUAUGUGAUGACAUCAGCCGACGCCUGGCACUGCUGCAGGAACAGUGGGCUGGAGGAAAGUUGUCAAUACCUGUAAGAGACCGAAUUCACUGGCCGUCGUUUUACAACGUCGUGACUGGGAAAAC
GST-His-SHARP R3-4h
  binding result: binds

## AAAAAAAAAAAAAAA (ssRNA) [A15]
[1]
  binding result: no binding
